Experimental data: doi:10.1101/2025.03.18.643936
“And” between values parts separate entries of the source, which are not always exact repeats. Equal values may be shown once.

Molecular target: the i20S and the s20S (human)
Test: mass photometry

Kd, first binding event: 20 nM and 30 nM
Substance: recombinantly expressed and purified human PA200 (from UniProt Q14997 1-1843) (natural protein)
